Results published in US20060009381A1 (I P RANDYWYCK B V, published 2006).

Target: the molecule itself
Assay: FRET by flow cytometry, mixtures of Annexin A5-FITC and Annexin A5-Alexa568 on PtdSer-coated paramagnetic beads
Protocol: Formation of two-dimensional lattices on the phospholipids surfaces was assessed FRET (fluorescence resonance energy transfer) analysis. Paramagnetic beads (1-4 μm in diameter) that were coated with a phospholipids bilayer containing PtdSer were incubated with mixtures of Annexin A5-FITC and Annexin A5-Alexa568 or mixtures of M23-FITC and M23-Alexa568. Fluorescence intensity of the beads was then measured by flow cytometry (Coulter Epics XL-MLC™) using an excitation of 488 nm and emission ranges of 515-530 nm (F11) and >600 nm (F13).

B1: Annexin A5 (other)
chain: AQVLRGTVTDFPGFDERADAETLRKAMKGLGTDEESILTLLTSRSNAQRQEISAAFKTLFGRDLLDDLKSELTGKFEKLIVALMKPSRLYDAYELKHALKGAGTNEKVLTEIIASRTPEELRAIKQVYEEEYGSSLEDDVVGDTSGYYQRMLVVLLQANRDPDAGIDEAQVEQDAQALFQAGELKWGTDEEKFITIFGTRSVSHLRKVFDKYMTISGFQIEETIDRETSGNLEQLLLAVVKSIRSIPAYLAETLYYAMKGAGTDDHTLIRVMVSRSEIDLFNIRKEFRKNFATSLYSMIKGDTSGDYKKALLLLCGEDD
modifications: FITC or Alexa568-succinimidylester coupled to amines (positions not stated)
notes: The FRET assay used mixtures of Annexin A5-FITC and Annexin A5-Alexa568 on paramagnetic beads coated with a PtdSer bilayer; also called Annexin A5-FITC; Annexin A5-Alexa568
  binding result: binds
